Earlier results, collected in patent publication US12370207B2, “Low-intensity treatment of hematological disorders” (Celator Pharmaceuticals, Inc., priority 2018, dated 2025).

B1: Pegfilgrastim: exogenous (recombinant) GCSF agent (protein, UniProt P09919 31-207, looked up)
Granulocyte …: TPLGPASSLPQSFLLKCLEQVRKIQGDGAALQEKLVSECATYKLCHPEELVLLGHSLGIPWAPLSSCPSQALQLAGCLSQLHSGLFLYQGLLQALEGISPELGPTLDTLQLDVADFATTIWQQMEELGMAPALQPTQGAMPAFASAFQRRAGGVLVASHLQSFLEVSYRVLRHLAQP
modifications: PEGylated, N-terminal Met (pegfilgrastim)
notes: exogenous (recombinant) GCSF agent
B2: Filgrastim: exogenous (recombinant) GCSF agent (protein, UniProt P09919 31-207, looked up)
Granulocyte …: B1 Granulocyte …
modifications: N-terminal Met (filgrastim)
notes: as for B1

Columns and labels:
[1] = tested on: hematological malignancies; details: single agent, ISICT patients
[2] = population mean

Row | Molecule | median overall survival [1] | response rates [1] | Fi, bioavailability of first-order absorption process [2] | CL, clearance ([2]; coefficient of equation (WTKG/70)^0.641)
1 | Nc1ccn([C@@H]2O[C@H](CO)[C@@H](O)[C@@H]2O)c(=O)n1 [LDAC] | 7-10 months | less than 20% |  | 
2 | B1 |  |  | 0.646 | 0.362 · (WTKG/70)^0.641 L/h
3 | B2 |  |  | 0.105 | 
